How the values were obtained:
[1] = test system: immobilized biotinylated peptide, N-terminal amino acid A (X-SDGMFTAGSLIGK(biotin)); assay: Phage ELISA, binding to immobilized peptide, N-terminal A
Description: (§1) Given the discovery that the specificity pocket library was functionally robust, selections against synthetic peptide ligands were carried out using this library. The specificity pocket library was selected against 20 biotinylated peptides, each with a different N-terminal residue atop a common leader sequence (X-SDGMFTAGSLIGK(biotin)) (SEQ ID NO: 4). The peptides were immobilized individually to the bottom wells of a microtiter plate. […] Consequently, ClpS mutant variants that prefer other residues in addition to the ligand ‘bait’ would bind those competing peptides in solution and simply be washed away. Only selective variants that bound to the immobilized target(s) were amplified during each subsequent round of selection.
(§2) To evaluate the specificity and selectivity of individual clones, both wild-type ClpS and the selected variants' binding to each of the biotinylated peptides independently were tested. The same approach was also used to monitor the progress of the selections and to prioritize particular pools of phage for further investigation.
(§3) Promising single clones were picked from the selection pools and their specificity was evaluated using the same panel of biotinylated peptides and various amounts of phage supernatant. […] Accordingly, Variant 1 represents a selective N-terminal amino acid capture probe for tryptophan useful for the sequencing methods described herein. Variant 1 also represents a useful scaffold for performing further generation and selection of variants with desirable properties for use as additional N-terminal amino acid capture probes.
(§4) The selection and ELISA protocols are very similar. Briefly, each well of a 96-well Maxisorp plate was coated overnight at 4° C. with 100 μl of 10 μg/ml neutravidin in PBS, or 1:500 dilution of anti-FLAG antibody. […]
(§5) For the ELISA readouts, 100 μl of pH adjusted phage supernatant or polyethylene glycol (PEG) precipitated concentrated phage was added to appropriate wells and allowed to bind for 1 hour at 4° C. […] The reaction was stopped by addition of 90 μl of 1M H3PO4 and the absorbance at A450 nm was read.

[2] = test system: immobilized biotinylated peptide, N-terminal amino acid H (X-SDGMFTAGSLIGK(biotin)); assay: Phage ELISA, binding to immobilized peptide, N-terminal H
Description: as §1, §2, §3, §4, §5

[3] = test system: immobilized biotinylated peptide, N-terminal amino acid Y (X-SDGMFTAGSLIGK(biotin)); assay: Phage ELISA, binding to immobilized peptide, N-terminal Y
Description: as §1, §2, §3, §4, §5

[4] = test system: panel of 20 biotinylated peptides, each with a different N-terminal residue (X-SDGMFTAGSLIGK(biotin)); assay: Phage ELISA specificity profile over the panel of biotinylated peptides; assay type: binding; settings: phage displayed; result in words
Description: as §1
To evaluate the specificity and selectivity of individual clones, both wild-type ClpS and the selected variants' binding to each of the biotinylated peptides independently were tested. […]
Promising single clones were picked from the selection pools and their specificity was evaluated using the same panel of biotinylated peptides and various amounts of phage supernatant. […]
as §5

[5] = test system: immobilized biotinylated peptide, N-terminal amino acid I (X-SDGMFTAGSLIGK(biotin)); assay: Phage ELISA, binding to immobilized peptide, N-terminal I
Description: as §1, §2, §3, §4, §5

[6] = test system: immobilized biotinylated peptide, N-terminal amino acid R (X-SDGMFTAGSLIGK(biotin)); assay: Phage ELISA, binding to immobilized peptide, N-terminal R
Description: as §1, §2, §3, §4, §5

[7] = test system: immobilized biotinylated peptide, N-terminal amino acid F (X-SDGMFTAGSLIGK(biotin)); assay: Phage ELISA, binding to immobilized peptide, N-terminal F
Description: as §1, §2, §3, §4, §5

[8] = test system: immobilized biotinylated peptide, N-terminal amino acid M (X-SDGMFTAGSLIGK(biotin)); assay: Phage ELISA, binding to immobilized peptide, N-terminal M
Description: as §1, §2, §3, §4, §5

B1: ClpS WT: truncated wildtype E. coli ClpS polypeptide, 84 amino acids, SEQ ID NO: 1, displayed on phage (protein, listed as Escherichia coli)
chain: KPPSMYKVILVNDDYTPMEFVIDVLQKFFSYDVERATQLMLAVHYQGKAICGVFTAEVAETKVAMVNKYARENEHPLLCTLEKA
modifications: phage display
phage ELISA binding signal ([1]; N-terminal A, phage 10X, sub Fab): −0.29
phage ELISA binding signal ([1]; N-terminal amino acid A, Table 1): −0.29
phage ELISA binding signal ([2]; N-terminal H, phage 10X, sub Fab): −0.03
phage ELISA binding signal ([2]; N-terminal amino acid H, Table 1): −0.03
phage ELISA binding signal ([3]; N-terminal Y, phage 10X, sub Fab): 1.08
phage ELISA binding signal ([3]; N-terminal amino acid Y, Table 1): 1.08
binding specificity / preference for N-terminal amino acids [4]: clear preference for Leu, Tyr, Phe and, more weakly, Trp peptides
phage ELISA binding signal ([5]; N-terminal I, phage 10X, sub Fab): −0.16
phage ELISA binding signal ([5]; N-terminal amino acid I, Table 1): −0.016
phage ELISA binding signal ([6]; N-terminal R, phage 10X, sub Fab): 0.13
phage ELISA binding signal ([6]; N-terminal amino acid R, Table 1): 0.13
phage ELISA binding signal ([7]; N-terminal F, phage 10X, sub Fab): 1.81
phage ELISA binding signal ([7]; N-terminal amino acid F, Table 1): 1.81
phage ELISA binding signal ([8]; N-terminal M, phage 10X, sub Fab): −0.11
phage ELISA binding signal ([8]; N-terminal amino acid M, Table 1): −0.11
